This note sets out measurements from patent US9150647 (KANCERA, dated 2015).

The target of assay [1] is human Ror1 (receptor tyrosine kinase ROR1, 937 amino acids, 105 kDa) (human) (UniProt Q01973). The assay is described as follows: flow cytometry, surface staining of cells of patient CLL-3. A general note: In flow cytometry, cells or beads pass a laser one at a time.
Assay [2] has the same target. The assay is described as follows: flow cytometry, surface staining of cells of patient CLL-1.
The target is the same in assay [3]. Kind of assay: flow cytometry, surface staining of cells of patient CLL-7.
Assay [4] shares this target. The assay is described as follows: flow cytometry, surface staining of cells of patient CLL-12.
Assay [5] shares this target. The assay is described as follows: flow cytometry, surface staining of CD19+ cells of patient CLL-6.
For assay [6] the target is unchanged. Kind of assay: flow cytometry, surface staining of cells of patient CLL-8.
For assay [7] the target is unchanged. The assay is described as follows: flow cytometry, surface staining of cells of patient CLL-14.
Assay [8] shares this target. Kind of assay: flow cytometry, surface staining of cells of patient CLL-15.
Assay [9] has the same target. The assay is described as follows: flow cytometry, surface staining of cells of patient CLL-18.
For assay [10] the target is unchanged. Kind of assay: flow cytometry, surface staining of cells of patient CLL-2.
For assay [11] the target is unchanged. Kind of assay: flow cytometry, surface staining of CD19+ cells of patient CLL-15.
Assay [12] shares this target. The assay is described as follows: flow cytometry, surface staining of cells of patient CLL-13.
For assay [13] the target is unchanged. The assay is described as follows: flow cytometry, surface staining of CD19+ cells of patient CLL-5.
Assay [14] has the same target. Kind of assay: flow cytometry, surface staining of CD19+ cells of patient CLL-12.
Assay [15] shares this target. The assay is described as follows: flow cytometry, surface staining of cells of patient CLL-6.
The target is the same in assay [16]. Kind of assay: flow cytometry, surface staining of cells of patient CLL-10.
The target is the same in assay [17]. The assay is described as follows: flow cytometry, surface staining of CD19+ cells of patient CLL-10.
Assay [18] has the same target. Kind of assay: flow cytometry, surface staining of cells of patient CLL-5.
Assay [19] shares this target. The assay is described as follows: flow cytometry, surface staining of CD19+ cells of patient CLL-13.
The target is the same in assay [20]. Kind of assay: flow cytometry, surface staining of cells of patient CLL-4.
Assay [21] has the same target. Kind of assay: flow cytometry, surface staining of CD19+ cells of patient CLL-14.
For assay [22] the target is unchanged. The assay is described as follows: flow cytometry, surface staining of CD19+ cells of patient CLL-8.
The target is the same in assay [23]. The assay is described as follows: flow cytometry, surface staining of CD19+ cells of patient CLL-7.
Assay [24] has the same target. Kind of assay: flow cytometry, surface staining of CD19+ cells of patient CLL-17.
For assay [25] the target is unchanged. The assay is described as follows: flow cytometry, surface staining of cells of patient CLL-16.
Assay [26] shares this target. Kind of assay: flow cytometry, surface staining of CD19+ cells of patient CLL-11.
The target is the same in assay [27]. The assay is described as follows: flow cytometry, surface staining of CD19+ cells of patient CLL-3.
Assay [28] shares this target. The assay is described as follows: flow cytometry, surface staining of CD19+ cells of patient CLL-4.
The target is the same in assay [29]. The assay is described as follows: flow cytometry, surface staining of cells of patient CLL-17.
Assay [30] has the same target. The assay is described as follows: flow cytometry, surface staining of cells of patient CLL-9.
The target is the same in assay [31]. The assay is described as follows: flow cytometry, surface staining of cells of patient CLL-11.
Assay [32] shares this target. The assay is described as follows: flow cytometry, surface staining of CD19+ cells of patient CLL-16.
Assay [33] shares this target. Kind of assay: flow cytometry, surface staining of CD19+ cells of patient CLL-1.
The target is the same in assay [34]. Kind of assay: flow cytometry, surface staining of CD19+ cells of patient CLL-18.
For assay [35] the target is unchanged. Kind of assay: flow cytometry, surface staining of CD19+ cells of patient CLL-2.
For assay [36] the target is unchanged. The assay is described as follows: flow cytometry, surface staining of CD19+ cells of patient CLL-9.
Assay [37] has as its target T1, human Ror1 (receptor tyrosine kinase ROR1, 937 amino acids, 105 kDa) (human, UniProt Q01973 30-937).
T1 construct: whole, on cells; Endogenous Ror1 of primary CLL cells; the same entry is used for surface staining and for the 105 kDa band in Western blots of cell lysates; also called Ror1 protein
Kind of assay: flow cytometry, surface staining of CLL cells.

Sequence of human Ror1 (receptor tyrosine kinase ROR1, 937 amino acids, 105 kDa) (human) (Q01973 30-937): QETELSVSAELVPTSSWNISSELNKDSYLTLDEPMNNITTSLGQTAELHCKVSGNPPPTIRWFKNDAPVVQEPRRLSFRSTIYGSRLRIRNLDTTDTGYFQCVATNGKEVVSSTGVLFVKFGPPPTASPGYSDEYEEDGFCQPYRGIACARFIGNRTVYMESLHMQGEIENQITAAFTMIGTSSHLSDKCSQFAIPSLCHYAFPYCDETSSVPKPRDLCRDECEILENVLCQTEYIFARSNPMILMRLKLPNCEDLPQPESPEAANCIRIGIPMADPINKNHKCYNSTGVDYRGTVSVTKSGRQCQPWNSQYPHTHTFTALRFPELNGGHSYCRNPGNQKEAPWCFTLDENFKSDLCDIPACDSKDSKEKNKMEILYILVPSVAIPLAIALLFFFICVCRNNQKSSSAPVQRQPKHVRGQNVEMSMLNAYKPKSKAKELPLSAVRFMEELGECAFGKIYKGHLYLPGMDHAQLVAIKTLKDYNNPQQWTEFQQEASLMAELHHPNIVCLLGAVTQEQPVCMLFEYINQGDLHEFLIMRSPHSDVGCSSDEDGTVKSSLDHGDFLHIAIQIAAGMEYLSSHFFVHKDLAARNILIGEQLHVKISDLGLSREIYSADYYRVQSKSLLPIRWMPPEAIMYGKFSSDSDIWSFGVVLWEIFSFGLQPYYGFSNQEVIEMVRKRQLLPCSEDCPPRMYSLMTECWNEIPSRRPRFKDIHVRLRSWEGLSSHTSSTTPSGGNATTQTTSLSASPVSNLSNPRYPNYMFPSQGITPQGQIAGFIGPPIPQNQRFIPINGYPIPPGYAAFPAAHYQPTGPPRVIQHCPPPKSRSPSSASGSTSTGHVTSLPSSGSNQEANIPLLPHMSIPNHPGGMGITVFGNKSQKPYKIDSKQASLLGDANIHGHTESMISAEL
T1 sequence (Q01973 30-937): as above

For “goat anti-Ror1 polyclonal antibody (N-Ror1com) (R&D systems)”, the Ror1 MFI was 10 in assay [1]; 13 in assay [2]; 14 in assay [3]; 15 in [4]; 20 in assay [6]; 45 in assay [7]. Moreover, the Ror1 MFI was found to be 19 in assay [8]; 33 in [9]; 25 in assay [10]; 14 in [12]; 35 in [15]; 10 in assay [16]. The Ror1 MFI in assay [18] was found to be 26; in assay [20], 20; in assay [25], 18; in assay [29] it was 20; in [30], 20; in [31], 11. The Freq. (%) of Ror1+ CLL cells (CD19+) is 91% in [5]; 61% in [11]; 80% in assay [13]; 81% in [14]; 63% in assay [17]; 84% in [19]. Also, the Freq. (%) of Ror1+ CLL cells (CD19+) in [21] was 92%; in [22], 50%; in assay [23], 37%; in assay [24] it was 79%; in assay [26], 65%; in [27], 36%. Moreover, the Freq. (%) of Ror1+ CLL cells (CD19+) is 86% in assay [28]; 36% in [32]; 80% in assay [33]; 93% in [34]; 91% in assay [35]; 69% in assay [36].

B1: Anti-Ror1 Ig24 (clone 2A4) antibody (antibody, IgM, V domains shown)
VH: EVKLQQSGPELVKPGASVKISCKTSGYTFTEYTMHWVKQSHGKSLEWIGGINPNNGGTSYNQKFKGKATLTVDKSSSTAYMELRSLTSEDSAVYYCALQGFAYWGQGTPLTVSS
VL: EIEITQTPALMSASPGEKVTMTCSASSSVSYMYWYQQKPRSSPKPWIYLTSNLASGVPARFSGSGSGTSYSLTISSMEAEDAATYYCQQWSSNPYTFGGGTRLELK
notes: Mouse monoclonal antibody; also called Ror Ig24 (IgM)
Take B1: in [37], the binding result is “binds”.

B2: Anti-Ror1 CRD16 (clone 1C11) antibody (antibody, V domains shown)
VH: EVKLQESGAELARPGASVKMSCKASGYTFTSYTMHWVKQRPGQGLEWIGYINPSSGYTEYNQKFKDKTTLTADKSSSTAYMQLSSLTSGDSAVYYCARRVLWLRRGDYWGQGTILTVSA
VL: EVLITQTPSSLSASLGERVSLTCRASQDIGSSLNWLQQEPDGTIKRLIYATSSLDSGVPKRFSGSRSGSDYSLTISSLESEDFVDYYCLQYASSPYTFGGGTKLELK
notes: Mouse monoclonal antibody; also called Ror CRD (IgM)
As to B2, the binding result in assay [37] is reported as “binds”.
